Source: the Human Domainome abundance scans (Beltran et al. 2025)

B1: WW domain-containing transcription regulator protein 1, residues 116 to 162; numbered along this chain, Q9GZV5 (parent)
chain: QSYDVTDELPLPPGWEMTFTATGQRYFLNHIEKITTWQDPRKAMNQP
B2: Protein S100-G, residues 1 to 79; numbered along this chain, P02633 (parent)
chain: MSAKKSPEELKGIFEKYAAKEGDPNQLSKEELKLLLQTEFPSLLKGPSTLDELFEELDKNGDGEVSFEEFQVLVKKISQ

Variants of: B1
Assay: abundance fitness (aPCA) (normalised: wild type 0, dead -1); higher = more abundant; growth selection in yeast, the domain comes from the species named
Conditions: Homo sapiens

Abundance fitness of substitutions, site by site:
A21: E -0.002
R25: I -0.024
D4: S -0.089
T22: W -0.357
I31: W -0.08
M44: S -0.089
G14: N -0.071
Y26: S -0.54 | K -0.506 | E -0.586 | A -0.397
N45: L -0.118
Q1: R -0.365
E32: Y 0.054 | R 0.004
P12: A -0.467 | C -0.716
S2: C -0.192
I34: H -0.324
R41: G -0.628
P13: W -0.245
G23: K -0.412 | V -0.925
E16: F -0.326

Variants of: B2
Assay: as above
Conditions: Bos taurus

Abundance fitness, by site and new letter:
V74: L -0.018 | T 0.024 | S 0 | Q 0.102 | I 0.066 | W 0.063 | K 0.041 | M 0.016 | R -0.245 | D -0.044 | E -0.004 | C -0.069 | G -0.023 | N -0.001
V72: D -0.068 | M -0.035 | Q -0.059 | I -0.022 | F -0.032 | E -0.092 | L -0.004 | T 0.053 | S -0.043 | P -0.018 | N -0.012 | H -0.029 | G 0.038 | A -0.034 | K 0.022 | Y -0.059
L73: E -0.247 | K -0.413 | Y -0.05 | P -0.797 | C 0.065 | F -0.124 | R -0.473 | G -0.041 | D -0.668 | I -0.016 | W 0.015 | S -0.187 | T -0.071 | N -0.273 | A -0.112 | H -0.151 | M -0.05 | Q -0.28 | V -0.017
K75: P -0.186 | M -0.098 | S -0.023 | Q -0.11 | Y -0.173 | H 0.01 | L -0.045 | F -0.151 | D -0.063 | R -0.074 | I -0.167 | G -0.022 | T -0.073 | W -0.125 | V -0.074 | C -0.148
K76: D -0.127 | W -0.293 | P -0.238 | R -0.094 | E -0.126 | H -0.153 | Q -0.056 | L -0.247 | V -0.191 | N -0.196 | T -0.175 | S -0.119 | G 0.011 | M -0.218 | I -0.131 | Y -0.325 | C -0.29
Q79: R 0.16 | T 0.085 | D -0.191 | S 0.041 | L -0.017 | I -0.346 | W -0.086 | Y -0.148 | M 0.026 | A 0.008 | G 0.074 | N -0.154 | E 0.272 | H -0.048 | P 0.254 | K 0.046 | V -0.086 | C -0.032
Q71: D -0.038 | C -0.101 | R -0.091 | N -0.06 | E 0.068 | P -0.25 | S 0.017 | L 0.031 | G 0.009 | F -0.107 | Y -0.168 | W -0.244 | K -0.074 | H -0.029 | I -0.054 | T -0.031 | V -0.058 | M -0.032
I77: A -0.169 | S -0.165 | W -0.176 | L -0.073 | Y -0.104 | E -0.142 | G -0.111 | V -0.158 | D -0.17 | F 0.051 | Q -0.092 | H -0.155 | C -0.136 | T -0.14 | M -0.143 | R -0.179 | N -0.025 | K -0.148
S78: L -0.188 | Y -1.23 | M -0.049 | P 0.258 | A 0.245 | F -0.25 | G -0.329
